Results on 1 molecule are retold here after patent US20260216299A1, “Use of Cytoglobin in Preparation of Drug for Preventing and/or Treating Diabetes” (priority 2022, published 2026).

Common to all, as to type: in vivo, C57BL/6J mice
For test [1], the system named is C57BL/6J diabetic model mice. Briefly: Weekly fasting blood glucose in high-fat diet diabetic model mice under treatment. Conditions: daily subcutaneous injection, rhCygb 5 mg/kg; weekly monitoring; vs PBS group; FIG. 7. The source says: 50 SPF-grade male C57BL/6J mice were purchased from Guangzhou Sebiona Biotech Co., Ltd. Their health status and whether they were all male were checked. All male mice were divided into groups of 5 per cage, totaling ten cages, with cage numbering. Cages 1 to 8 were designated as the high-fat diet modeling group and fed a high-fat diet with ad libitum feeding and drinking. Cages 9 and 10 were designated as the normal diet modeling group and fed standard chow with ad libitum feeding and drinking. All mice were marked with tail lines for identification. During modeling, body weight and fasting blood glucose (FBG) levels of all mice were measured weekly, and tail markings were reinforced. […] At 9:00 AM every Friday, body weight was measured, the tail tip was clipped, and approximately 1-2 μL of (a drop of) blood was applied to a Roche Accu-Chek® Active test strip on a glucometer to determine FBG. […]
(§1) The mice of placebo group, rhCygb treatment group, and EX-4 treatment group received daily subcutaneous injections of PBS, rhCygb, or EX-4, respectively for 2 months (frequency adjusted based on survival status of mice). […] Absorbance at 510 nm was measured using a microplate reader. Cholesterol content was calculated according to the formula: […]

In test [2] the test system is C57BL/6J diabetic model mice. Briefly: Four blood lipid items in serum of treated mice (T-CHO, TG, HDL-C, LDL-C kits). Conditions: after 28 d of treatment. The protocol: (§2) The AUC for blood glucose changes within two hours post-glucose gavage was shown in FIG. 5, confirming impaired glucose tolerance in the DM group. • 2) Successfully modeled mice were divided into three groups based on no statistical difference in blood glucose within groups and statistical difference in blood glucose between groups: wherein the three groups are rhCygb treatment group (5 mg/kg subcutaneous injection), exendin-4 treatment group (50 μg/kg subcutaneous injection), and placebo group (0.1 mL PBS subcutaneous injection) (grouping without re-caging, mice remained in original cages), respectively.
(§3) The mice of placebo group, rhCygb treatment group, and EX-4 treatment group received daily subcutaneous injections of PBS, rhCygb, or EX-4, respectively for 2 months (frequency adjusted based on survival status of mice). […] Mice were immediately sacrificed by cervical dislocation after blood collection and dissected for tissue collection. Liver tissue, pancreas, kidneys, heart, lungs, stomach, and spleen were sequentially collected for biochemical and pathological examination as detailed below. 3. Measurement of four blood lipid items • 1) Total Cholesterol (T-CHO) Measurement: prepared serum was diluted tenfold with physiological saline at a 1:9 ratio. Into each well of a 96-well plate, 2.5 μL of deionized water, 2.5 μL of standard, and 2.5 μL of sample were sequentially added. Then, 250 μL of working solution was added to each well, thoroughly mixed, and incubated at 37° C. for 10 min in an electric thermostatic incubator. Absorbance at 510 nm was measured using a microplate reader. Cholesterol content was calculated according to the formula: […]
Serum from each treated C57BL/6J mouse was assayed using a total cholesterol assay kit. […] Furthermore, no significant difference was observed between the treated groups (rhCygb treatment group and exendin-4 treatment group) and the blank control group, indicating effective therapeutic outcomes. • 2) Triglyceride (TG) Measurement: prepared serum was diluted tenfold with physiological saline at a 1:9 ratio. […] Absorbance at 510 nm was measured using a microplate reader. Triglyceride content was calculated according to the formula: […]
Serum from each treated C57BL/6J mouse was assayed using a triglyceride assay kit. […] Absorbance at 546 nm (A1) was measured using a microplate reader. […] Absorbance at 546 nm (A2) was measured again. HDL-C content was calculated according to the formula: […]
Serum from each treated C57BL/6J mouse was assayed using an HDL-C assay kit. […] Absorbance at 546 nm (A1) was measured using a microplate reader. […] Absorbance at 546 nm (A2) was measured again. LDL-C content was calculated according to the formula: […]

Test [3] deals with pancreatic tissue of C57BL/6J diabetic model mice. Nature of the test: H&E staining of pancreatic tissue sections. The protocol:
as §2, §1
The severity of lesions observed in the HE-stained pathological sections of each mouse was graded. This ordinal data was analyzed using the K Independent Samples non-parametric test in SPSS software, and the result indicated a statistically significant difference between groups. As SPSS lacks pairwise comparison for multiple independent samples, all data were ranked and converted into quantitative data, then subjected to one-way ANOVA.

Test [4] concerns renal tissue of C57BL/6J diabetic model mice. Nature of the test: H&E staining of renal tissue. As to conditions: FIG. 14. The protocol:
as §2
as §3, with “Into each well of a 96-well plate, 2.5 μL of deionized water, 2.5 μL of standard, and 2.5 μL of sample were sequentially added. Then, 250 μL of working solution was added to each well, thoroughly mixed, and incubated at 37° C. for 10 min in an electric thermostatic incubator.” left out

In test [5] the test system is PCNA. Nature of the test: PCNA immunohistochemistry of pancreatic tissue. Conditions: pancreas; 4-week treatment; FIG. 15 to 16D. Here is the method: (§4) Pancreatic tissues were sectioned at 4 μm and baked at 60° C. for 2 h until paraffin melted. Sections underwent hematoxylin-eosin (H&E) staining.
(§5) Sections were immersed in methanol containing 3% hydrogen peroxide (endogenous peroxidase blocker) for 15 min. After PBS (10 mM, pH=7.0) rinsing, sections were incubated at 25° C. for 1 h with antibody cocktails (rabbit anti-glucagon monoclonal antibody: anti-somatostatin antibody=1:1), or separately with: anti-mouse insulin antigen monoclonal antibody, anti-proliferating cell nuclear antigen (PCNA) monoclonal antibody, rabbit anti-Ki67 monoclonal antibody. Alternatively, sections were incubated with guinea pig anti-PDX-1 monoclonal antibody at 4° C. for 14 h. Nuclei were counterstained blue with hematoxylin and sections were subjected to morphometric analysis.
PCNA Analysis method: The immunohistochemistry results were analyzed for percentage using Image-Pro Plus 6.0 (Media Cybernetics, Rockville, MD, USA), at least 3 random field of view at 200× per section within a group were captured. […] Each photo was analyzed to obtain the number of positive cells and the total number of cells in each photo. Then, the percentage of positive cells was calculated, as: Positive cell percentage (%)=(Positive nuclei count/Total nuclei count)*100 was calculated as the positive rate.

Test [6] has as its system Insulin and Glucagon expression in pancreatic islets. Nature of the test: Glucagon/Insulin immunohistochemistry of pancreatic islets (average optical density). The protocol:
as §4, §5
Glucagon/Insulin Analysis Method: The immunohistochemistry results were analyzed for average optical density analysis using Image-Pro Plus 6.0 (Media Cybernetics, Inc., Rockville, MD, USA). For each section with a group, at least 3 fields of view at 200× magnification were captured. […] The integrated optical density (IOD) value of positive staining on the pancreatic islet and the pixel area (AREA) of the pancreatic islet were analyzed for each photo. The average optical density value (AO value) was calculated as AO=IOD/AREA. […]

B1: rhCygb: recombinant human cytoglobin; hexacoordinate heme globin, 21.4 kDa, 190 amino acids, injected as PBS solution (protein, UniProt Q8WWM9 1-190, looked up)
Cytoglobin: MEKVPGEMEIERRERSEELSEAERKAVQAMWARLYANCEDVGVAILVRFFVNFPSAKQYFSQFKHMEDPLEMERSPQLRKHACRVMGALNTVVENLHDPDKVSSVLALVGKAHALKHKVEPVYFKILSGVILEVVAEEFASDFPPETQRAWAKLRGLIYSHVTAAYKEVGWVQQVPNATTPPATLPSSGP
Consider B1, for which the blood glucose result in test [1] is “significantly reduced blood glucose after 6 weeks”. Besides, the HDL-C levels entry in test [2] (vs NC group, FIG. 10) is given as “numerically higher HDL-C levels on average compared to other groups”. Besides, the total cholesterol levels result in test [2] (subcutaneous rhCygb 5 mg/kg or exendin-4 50 μg/kg, FIG. 8) is recorded as “statistically significant reduction in total cholesterol levels compared to the placebo group”. Besides, in test [2] (subcutaneous rhCygb 5 mg/kg or exendin-4 50 μg/kg, FIG. 11), the LDL-C levels entry is “statistically significant reduction in LDL-C levels compared to the placebo group”. Moreover, in test [2] (subcutaneous rhCygb 5 mg/kg, FIG. 9), the triglyceride levels entry is recorded as “statistically significant reduction in triglyceride levels compared to the placebo group”. For the same molecule, the “severity of lesions in HE-stained pancreatic sections (graded, ranked, one-way ANOVA)” value in test [3] (FIG. 13) is “no significant difference between rhCygb and NC groups”. In addition, the “pancreatic tissue morphology (H&E)” value in test [3] (acinar cell steatosis, islet morphology, inflammation, FIGS. 12A-12D) is given as “normal pancreatic islet morphology without significant inflammation”. In addition, the “renal steatosis and inflammatory cell infiltration (H&E)” value in test [4] was “near-normal renal morphology without significant inflammatory cells”. For the same molecule, the PCNA-positive cell rate result in test [5] is “significantly enhanced PCNA staining intensity”. Also, in test [6] (FIG. 17, 19), the “expression level of glucagon (average optical density)” value is “statistically significant differences compared to both the PBS group and the NC group”. In addition, the “expression level of insulin (average optical density)” value in test [6] (FIG. 18, 20) is “statistically significant differences compared to both the PBS group and the NC group”.
